Data reported in paper PMC8981723.

Target: Human PLA2G1B (phospholipase A2 group 1B), active form (human) (UniProt P04054)

**Q.** With “Recombinant HIV-1 gp41 MN protein (gp41 MN (565-771Delta642-725)) (from UniProt P05877 565-771) (domain or fragment)” as the substance, how does the PLA2G1B enzymatic activity ([3H]AA release from labeled human CD4 T cells), PLA2G1B 63 nM, gp41 0.68 nM-340 nM read?
**A.** The PLA2G1B enzymatic activity ([3H]AA release from labeled human CD4 T cells), PLA2G1B 63 nM, gp41 0.68 nM-340 nM was > 20 fold.
